Experimental data from the DeepSol protein solubility set.

Test: soluble on expression in E. coli; label from the status in PepcDB or PDB records

| Sequence | soluble on expression in E. coli |
| --- | --- |
| MGSDKIHHHHHHMNWSQIISLVSAGNYMEVEKILQDYPYIVDMADHLREQKLKVIANLDTYVKRTMDSVEKLGGHAYLAKDKDEARKIIGDLVGEKKTVVFSKTNVAYEIGLREFLQERNNEVWETDLGEYLVQISRGWPTHIVAPALDMTREEAAKAVKKIDPSINENSKIEDIVAAVRKFLMSKYVKADVGITGANAVAADSGSVALVENEGNIRIDTVMPPMHIAVTGIDKIVPTMRDALDEVMVQAAYAGIFPPTYINVTSGPSSTADIELRRVSPATGPKDFHLVLIDNGRLEASKNEDLKEALLCIKCGRCYFSCPIYRTLGKEWISTKSPYNGPTGVMWNYITNKDPWPASYCVHSGGCKEVCPMKINIPEVIKYIKFIGSKQVGK | not soluble |
| MGSDKIHHHHHHMIVTEHSTRPLGEEGLANYVQRLRGQLSLTQKELSFKAGIHIQTIRKIEGGQTNRLNQKAKGGLAAALGIPPEYLDAAAKKVSPETITTLKFCPKCWTPGTTPDQMWTDLRSKYCFACGTALRNRCVSCNEPIMSLKFKFCPYCGANYKQNQTTS | not soluble |
| MAHHHHHHMERAHGAKDGGSKTLFVTVGSHQFDDLIKQIDTKDFHSFLRRAGFAKMSMQIGQGTYEPQLIYRCSGNGEESLLKRVKFFRYKKDLLKDFQKADLIVSHAGAGTTLEGLRMKKKMLIVVNDKLMGNHQLEFAEFLRSRNYLEVCECLGDLRAHVLRCLRTPAFAPFPAPRPEPFLRDLRALMDGAA | soluble |
| MATYLIGDVHGCYDELIALLHKVEFTPGKDTLWLTGDLVARGPGSLDVLRYVKSLGDSVRLVLGNHDLHLLAVFAGISRNKPKDRLTPLLEAPDADELLNWLRRQPLLQIDEEKKLVMAHAGITPQWDLQTAKECARDVEAVLSSDSYPFFLDAMYGDMPNNWSPELRGLGRLRFITNAFTRMRFCFPNGQLDMYSKESPEEAPAPLKPWFAIPGPVAEEYSIAFGHWASLEGKGTPEGIYALDTGCCWGGSLTCLRWEDKQYFVQPSNRHKDLGEGEAVAS | soluble |
| MSLLQEMTIKNFAIIESLSLTFQEGMTVLTGETGAGKSIIIDALGLLVGGRGSADFIRHGEERLELQGLFALAEDNLACRNALIENGIDASDDMVVLERSLFRSGKNSCRINGKLVTTVLLRQIGSKLIDIHSQHEHQELMNEEFHLSLLDRFASDKIKPALTKYQTNFKEYQTIEKEWQNWTKNERELAQRLDMLRFQQQEIENANLQAGEEDRLLEQKNILANFEKLNENLQGAYAAIQGEPGGLEFVGEAMRQMEAAASIHTDYKAVSEAISSSYYMLEDSMSQIRQSLDQLEFQPEELNQIESRLNDLNQLKRKYGKTIEDIIQYEQEISSEMEKLTDSESHVGHLETKLATLKAELTKQANTLTEIRKKAAVTLEKQIKQELNHLYMEKAIFSVRFEANKMELTDSGQDSVVFYMSTNPGEPLKPLAKIASGGELSRMMLALKTIFSRHQGITSIIFDEVDTGVSGRVGQAIAEKIYAVSVGSQVLCISHLPQVAAMANHHYYITKKVQNKRTTTSVTVLKGEEKVEEISRMIAGIEVTELTKQHAKEMIEQAEKVKQTYEGHHHHHH | soluble |
| MGSDKIHHHHHHMTMTKKDALLLAAKELFGEYGYSETTFKKISERAGVALGLLTHHYGNKEKLFLAAGLDVLDRFIVYLQDACAKGNNGYESVMNFCRAYLDFSIDKNEHFMVLVRCSPYSDMKTKTDRDIMYEKFNQVPRELEYHVRRGIEDGSLKSLPAYETTTVLTCNLVGSIRTKLLTPYAPPSLYDDVLEFISRSIKA | not soluble |
| SLSIKTILIDDEPKAIAILKNKIERLCPDLEIVATIEKPALAFDIINELQPQLVFIDIAMPGMSGFDVLEQFKKPQFEIIFATAFDQYALDAIKQCAIGYLVKPIDNEDLVEAVTNATTNIEQKNALVKNTQLLENINQENFHKKKIVIPSTDGLEFVKVKSITHCEGVDGYTKIHFTNRKPILSSSSIGHFKKLLSHPDFYHVHKSYVTNTNHIIKYLNDGYVTLTGDVTIPVARAKRAEFLEKFRNEG | not soluble |
| MAHHHHHHMMRSRRPLSASRASARASAASRPQPHTTVSSDDASRSQTTAPIYRPLRYVGRGSFGVVLLAEEVHTGDRVAIKRVHYDARLHNREVAILNSVLVDNPRHQQPSSTAVDSNDASRRPGGAARASCTSFLSASSSSHTVEDVHLWPGTHHPNIVELLDFYVTYDTASSEQALGADMVGAGGAGAGFEFLPSYHPAAHRYPLSGGSGAASASAPPVPAPLAAFAYLEMVMSYLPMDLCYVKRYYFRFHDMPTIATSSSSSPIASPEQAPTELSSGELPEGTADRLPASPKHAGTGCNGNNSSRHSSTSSSGGDVCNHLPLRWVKVVLFQLARALAFMHVRHVCHRDLKPANVLVDPDTGRVQVCDFGSAKQITRPAEEKNVSYICSRYYRAPELLFGALHYGCAVDMWSFGCIAAELLRESGKPLFRGCTSIDQMAELFKVLGAPSKREMYAMNPQCAEALLRTRAMHRHQSLDNDPHSGSGGGVRQDRSCGLELEVDYQAEEEDDVELRGGAQQGGYDVDSHGEFLRDALDDGISSQASASPGMATASPPSSSTKDPRDYKTTFSAPPSTAATAMLDDVAPTPFEEYYDVLKVRAIPWRRLFPVDTPTEAVALVASLLCYAPDKRLTAAELVEHPFFDDLFSAADAQLATVDRDAATAVASGATMSPSEDDGVASAALRLPNGRLMPLSMFQVTEVERGLYTDAFLTRMARQAELVAAVMKQDEYP | not soluble |
| MKANTIIAGLLSSTLLATAAYAQTPAPADSTRTMSKSTSASESQHMGQWRASKLIGVNVYNQGNEKLGDISEMLIDSEGRIQGVVIGVGGFLGVGQRDVAVTFDKLQWVNTPVSSNTAMNSQTTPAGSGTSTASPAGTTTGAATSTTAANNADRWYPDHAVLNATKDQLKSMPEFKYSK | not soluble |
| MLERHDRLETLRKLKELQERIAELAYLLTGEEPAAWTPRVDLLETEEHYVLLVDLPGVRPEDLELLEEGQRVTLAGVRHPLPGTYLLEERPMGTFRRTLDLPGPIEEGTAQATLRNGVLEVRFRKRPATALPLKEA | soluble |
| MGSDKIHHHHHHAATVAEATSNPWDNYYIGKIDFKNLSPEAKGSAIYAAVIPDPEAYITKHARKVVETLYFTPEDSIPGIEEIHYTLKEYDGVSAKDGAPPSISIVYSTKWIEKSFANNDTAKVDYETRGVLYHELTHGFQLEPQGIGSYGTNKTFWAMIEGVADAVRYLNGGFTLEDRPKGGHYMDGYRTTGFFLAWLTQTKSPDFLRKFNRSTLEVIPWSFDGGVKYALGNDYDIDSLWKEYMATMGDEA | not soluble |
| SASLDRVKVLVLGDSGVGKSSLVHLLCQNQVLGNPSWTVGCSVDVRVHDYREGTPEEKAFYIELWDVGGSVGSASSVKSTRAVFYNSVNGIILVHDLTNKKSSQNLYRWSLEALSKDSSPTGIIVSNGDYDREQFAENAVPLLLIGTKFDQIPENKRNDVLTRTAFLSEDFNAEEINLDCTNPRYLAAGSSNAVKLSRFFDKVIEKRYFTRDPSQMQSFTDRRRFNFKSLHSD | soluble |
| MSLEKKDNVFTFGNALSLYYKDYETPLIINTDDINQFKRSDKFYVLGNEFNAEIKYPYFMSSLYCIESGDIVMVYNAVELIQRPRLIIKALMALRKKYGFSKLIYLPGIGDPYIIPVLVYAGADLFDDTYIKEESINNIKYTMMGKTKSSDNNINDNLKFANDIISLLRSSIKTGTLREFVEKFQYSSRAIEMLRIIDNDYFSDYSMVFPVYTPYIKANTIESLNRPDIVSYRNYIKNDYSKPDVENLLILPCSAKKPYSKSKSHKKILSRIEKYRKYIHELIVTSPVGLVPRELESMYPAAFYDIPVIGLWYEDEKKMINDLLKSYLSKNRYKNIIAYIDEDLNFIKSSGNIILIEGNILSEEKLSELESTLRDLTINSPKMDHLFNYKSMLSYQFGTWIKDYLDDIKISRSYNMDMVTRNGRALFVFNEKLGRFTINRNGAGIFLNAGKKIVYIDDFKPTSYVFNAGIKDATDDIKPGDEVIIVHNNEIRGVGTALISYRAMIDLDHGAGVKVREGHHHHHH | soluble |
| MGSDKIHHHHHHMTVKSSTSSLHDRSSTSTSLMPGFADPVFDAQAVFRASLLATAYPGRVVPVDRALASPRPFSSATAALCLTLMDFETLAWLDRQAASGEAVAWLRFHCGLPVTDDPMKARFAVVTDALTMPRLVEFHPGDVEYPDRSMTLIIQVPSFNEGPATTWTGPGIKTSARVSIGGLPFWYWSDWEMNRELYPRGIDVIFTNGNALVGLPRTIAVEA | not soluble |
| MDTLDELLPREKMLRSGIASLSDVELLALFLRTGTPGKDVMTLAKEILQHFGSLYGLLSADFAQFRGVNGIGLAKFAQLKGIAELARRYYSVRMNEESALLSPEMTREFLQSQLTGEEREIFLVIFLDAQHRVLQHSRLFSGTLNHVEVHPREIVREAIKLNASAVILAHNHPSGCAEPSKADKLITERVIKCCQFMDIRVLDHLIIGRGEYVSFAERGWI | not soluble |
| MTYFTSWDEFAKAAERLHSANPEKCRFVTKYNHTKGQLVLKLTDDVVCLQYSTNQLQDVKKLEKLSSTLLRGIVTQ | soluble |
| MSLAMLMLLAACSERSADWSLYNVKGHLPDLKFSLPGAHGKTVSSDDLKGKTVLLFFGYASCPDVCPTTMAQLTAVLQQLGEQARDVRILFVSVDPHRDTPDILQAYVNAFNNNAIGVTGNEKQIADLARRYRLAYQIEKPKPGDDADIYDVTHSRGVYIFDNQGKARLLASDTDTIDTMVKDLRQLIAQTQEGHHHHHH | soluble |
| MIPKNIHLIFLRKDEPFPELFEKCKQEIQVNHPDWNIRLYNKDDAQDILNQDLPEYIEAYNAFYHNVQKADFLRLALVYLYGGFYMDLDMLSLKPLDELRKYNLVLGEEKIVCQAEQEALNLRYRLRIANYMFGGIPKHPFLHRIMDEMAERATIILKSQQEILDITGPGLLTDTYWDNYGMYTDITLLRNTDKRCRQPYHNEISCHFGDYAAHLHAGTWRTGILEHHHHHH | soluble |
| VDNVLVIIGPTASGKTKLAIEIAKRANGEIISADSMQIYKYMDIGTAKPDEEEKEGIKHYLIDEVTPDEEFSVARFKELALKYIDEILSKGKLPIVAGGTGLYINSLIYNLEFSDTICDWELRKKLEQEAKEKGNEYLHNKLKEIDPKAAEKIHMNNVKRVIRAIEVYTYTKKPISVHQEESRKNPPRHNFILIGITMDREKLYDRINKRVDLMLEKGLVKEVEKLVEMGYDKSTIAMQGLGYKEILSYLRGERSLDEAVEILKRDTRRYAKRQMTWFRKIENVYWINKDEFDSDEKIIKNLKYYLATFGIFL | soluble |
| MGSDKIHHHHHHMFTSNQGAGRMNKEVGMDNPGLDVYLRDQKIGRLWLDDKRRFVFQYDSEWTHQKGAVPLSLHLPLREEIYPDDLARPFFSNLLPEAEVKRAIAQRLRISESNDFALLNSIGGECAGAVSVLPAGVAPAMKPGYRELSEEELHRIIIELPRRPLLAGVEGMRLSLAGAQNKLPVYMEDHRIFIATGNAPSSHILKPPIRDLEDTVGNEAFCMILAQRLGLQVPVVTIRRGLDRIFIIARYDRSRDTDGHIVRLHQEDFCQALGFLPEQKYENEGGPSLKQCFTLLQEKSIRPAADRMALLRWTIFNLLIGNDDAHAKNLAMIFTDRGPRLAPFYDLICTQVYPDLTEKQAMRIGGENRPSWILQKHWDRFSESTAIKPNLVLKTLKEMSAAIALAAQTLSSEFIKKYGTCTIIEEILAVIEKRAESV | not soluble |
| MSDPSAKPLQEHILIILDDAGRREVLLTETFYTIGRSPRADIRIKSQFVSRIHAVLVRKSSDDVQAAYRIIDGDEDGQSSVNGLMINGKKVQEHIIQTGDEIVMGPQVSVRYEYRRRDQFGTMLEHHHHHH | soluble |
